Paper PMC12589563

Biological target: KCNQ1 of the KCNQ1APO structure (human) (UniProt P51787)
Assay: cryo-EM structure; human KCNQ1 with CaM, apo state; C4 symmetry, 2.5 Å

Substance “KCNQ1 of the KCNQ1APO structure (from UniProt P51787 1-676) (natural protein)” has a stoichiometry N of 4.
